Key:
[1] = molecular target: 14-3-3 ζ (UniProt P63104); assay: GFP-Trap co-IP, Myc immunoblot; details: reference: wild type
[2] = molecular target: 14-3-3 ε (UniProt P62258); assay: GFP-Trap co-IP, Myc immunoblot; details: reference: wild type

Substance | binding against the reference ([1]; sites S395) | binding against the reference ([2]; sites S395) | binding against the reference ([1]; sites S411) | binding against the reference ([2]; sites S411)
E2F8 (from UniProt Q58FA4) S395A | lost | lost | – | –
E2F7 (from UniProt Q6S7F2) S411A | – | – | lost | lost

Reference: publication PMC5830916
